In US10160812B2, “Bispecific HER2 antibodies” (MedImmune, LLC, priority 2014, dated 2018):
“Also recorded” adds a separate entry of the source.

Key:
MDA-MB-468 = assay: In vitro cytotoxic activity (Cell Titer Glo); assay type: cell-based, human; settings: MDA-MB-468, 3 to 4 days
Method: Briefly, cells were harvested, resuspended, and plated in serum-containing culture media at a density of 5,000 to 20,000 per well (depending on the growth kinetics of each cell line) of 96-well plates in a volume of 100 μL. A 2× concentration of each dose of antibody or ADC to be tested was prepared by diluting the test articles in culture medium. One hundred microliters of each test article was added to cells in triplicate such that the final dose curve ranged from 5 nM down to 0.08 pM in a stepwise 1:4 serial dilution series. The treated cells were incubated at 37° C./5% CO2 for 3 to 4 days, depending on the growth kinetics of each particular cell line. Cell viability was determined using Cell Titer Glo according to manufacturer's instructions. Data are analyzed by the GraphPad Prism software and presented as percent growth inhibition relative to the untreated control.

MDA-MB-361 = assay: In vitro cytotoxic activity (Cell Titer Glo); assay type: cell-based, human; settings: MDA-MB-361, 3 to 4 days; read-out: In vitro potency (EC50 in pM)
Method: A panel of human cancer cell lines expressing various levels of HER2 was used to evaluate the cytotoxic activity of bispecific ADC (Table 5 in Example 1). Briefly, cells were harvested, resuspended, and plated in serum-containing culture media at a density of 5,000 to 20,000 per well (depending on the growth kinetics of each cell line) of 96-well plates in a volume of 100 μL. A 2× concentration of each dose of antibody or ADC to be tested was prepared by diluting the test articles in culture medium. One hundred microliters of each test article was added to cells in triplicate such that the final dose curve ranged from 5 nM down to 0.08 pM in a stepwise 1:4 serial dilution series. The treated cells were incubated at 37° C./5% CO2 for 3 to 4 days, depending on the growth kinetics of each particular cell line. Cell viability was determined using Cell Titer Glo according to manufacturer's instructions. Data are analyzed by the GraphPad Prism software and presented as percent growth inhibition relative to the untreated control. EC50 values were determined using Sigmoidal non-linear regression analysis with GraphPad Prism software and were summarized in Table 6.

[1] = system: NCI-N87 and MDA-MB-468 cells co-culture; assay: Bystander effect co-culture assay (FACS); assay type: cell-based, human; settings: co-culture of HER2-overexpressing NCI-N87 and HER2-null MDA-MB-468, 5 nM, 4 days
Method: NCI-N87 cells were stably transfected with green fluorescent protein (GFP) and MDA-MB-468 cells were stably transfected with red fluorescent protein (RFP). Both cell lines were harvested, washed, resuspended in culture media and then seeded in the same well of a 6-well plate as co-culture. As a control, each cell line was seeded in a different 6-well plate as single culture (FIG. 28A). To adjust to different growth kinetics, NCI-N87 cells were seeded at 5×10^5 cells/well and MDA-MB-468 cells were seeded at 2×10^5 cells/well. Cells were incubated for 2 days at 37° C./5% CO2. Media were aspirated and fresh media containing 5 nM of antibody or ADC to be tested was added to cells and the plates were incubated for 4 days at 37° C./5% CO2. At the end of treatment, cells in each well were collected, washed, resuspended in 100 μL of ice-cold FACS buffer and then fixed with 2% PFA. Cells were analyzed by a BD LSR II machine and BD FACSDiva™ software. Data were analyzed with FlowJo software.

HER2 = HER2 (Homo sapiens, UniProt P04626); assay: FACS-based binding competition assay with labeled 39S; design: endogenous in cells; host or cells: BT-474; settings: BT-474 cells, 2 ug/mL labeled 39S
Method: BT-474 cells were harvested, resuspended in FACS buffer, and 2.5×10^5 cells/well were added to a 96-well U-bottom plate. […] After 1 hour of staining on ice, cells were washed 3 times with ice-cold FACS buffer and then fixed with 2% PFA. Cells were analyzed by a BD LSR II machine with BD FACSDiva™ software. Data were analyzed with FlowJo software and presented as mean MFI±SEM (n=3).

MCF-7 cells = assay: Ligand-dependent proliferation inhibition assay; assay type: cell-based, human; settings: in combination with trastuzumab or pertuzumab
Method: Cell viability was determined using Cell Titer Glo from Promega according to manufacturer's instructions.

human EGFR = target: T1, human EGFR (Homo sapiens, UniProt P00533); assay: Capture ELISA binding specificity / species cross-reactivity; settings: recombinant extracellular domain protein
T1 construct: recombinant extracellular domain proteins: human EGFR, human HER2, human HER3, human HER4, mouse Her2, or cynomolgus monkey Her2
Description: (§1) To determine whether 39S retains the binding specificity and species cross-reactivity of its parental antibody AZ1.39.1, binding of 39S to the receptors of human ErbB family (EGFR, HER2, HER3, and HER4), the mouse Her2, and the cynomolgus monkey Her2 was examined by capture ELISA. Briefly, 96-well plates were coated with one of the following recombinant extracellular domain proteins: human EGFR, human HER2, human HER3, human HER4, mouse Her2, or cynomolgus monkey Her2. Antibody to be tested was prepared by diluting in a stepwise 1:3 serial dilution ranging from 50 nM down to 0.28 pM and then added to the wells in duplicate. After one hour of incubation, plates were washed, and goat anti-human IgG Fab HRP-conjugated secondary antibody was added to each well and the plates were incubated for 1 hour. The plates were washed and TMB substrate was added and incubated for 5-20 min to allow color development. The stop solution was added to the wells at the end of reaction and the plates were read at 450 nm. Binding signal (absorbance at 450 nm) was plotted against antibody concentration using Prism software.
(§2) Binding specificity and species cross-reactivity of bispecific antibodies to the recombinant extracellular domain protein of human EGFR, human HER2, human HER3, human HER4, mouse Her2, or cynomolgus monkey Her2 were determined by capture ELISA as described in Example 1.
(§3) To determine whether the conjugation of tubulysin 1508 alters antigen binding specificity and species cross-reactivity, binding activity of bispecific ADC to the recombinant extracellular domain protein of human EGFR, human HER2, human HER3, human HER4, mouse Her2, and cynomolgus monkey Her2 were confirmed by capture ELISA as described in Example 1.

human HER4 = target: T2, human HER4 (Homo sapiens, UniProt Q15303); assay: as above; settings: recombinant extracellular domain protein
T2 construct: recombinant extracellular domain proteins: human EGFR, human HER2, human HER3, human HER4, mouse Her2, or cynomolgus monkey Her2
T2 sequence (Q15303 26-651 limits assumed): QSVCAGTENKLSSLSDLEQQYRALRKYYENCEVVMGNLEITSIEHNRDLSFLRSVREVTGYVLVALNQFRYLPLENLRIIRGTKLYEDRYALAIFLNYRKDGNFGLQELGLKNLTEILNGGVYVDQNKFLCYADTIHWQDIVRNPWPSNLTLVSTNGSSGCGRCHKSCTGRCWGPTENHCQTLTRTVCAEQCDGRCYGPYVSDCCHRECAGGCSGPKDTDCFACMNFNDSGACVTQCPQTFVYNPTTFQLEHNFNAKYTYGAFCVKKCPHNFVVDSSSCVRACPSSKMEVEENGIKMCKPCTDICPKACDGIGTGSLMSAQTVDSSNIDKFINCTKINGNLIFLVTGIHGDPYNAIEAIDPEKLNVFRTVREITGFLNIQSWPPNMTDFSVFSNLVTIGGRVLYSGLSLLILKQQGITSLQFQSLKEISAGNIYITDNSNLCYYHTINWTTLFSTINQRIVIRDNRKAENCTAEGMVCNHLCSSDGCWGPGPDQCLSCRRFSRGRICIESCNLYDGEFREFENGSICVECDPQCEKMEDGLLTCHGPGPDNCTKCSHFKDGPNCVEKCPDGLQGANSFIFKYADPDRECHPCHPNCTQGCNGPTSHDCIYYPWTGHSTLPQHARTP
Description: as §1, §2, §3

cynomolgus monkey Her2 = assay: as above; settings: recombinant extracellular domain protein
Description: as §1, §2, §3

binding by capture ELISA (human EGFR)	binding by capture ELISA (human HER4)	binding by capture ELISA (cynomolgus monkey Her2)	Molecule	In vitro potency (EC50 in pM) (MDA-MB-468)	EC50 (MDA-MB-361) [pM]	bystander effect [1]	competition for binding / epitope (HER2)	inhibition of ligand-dependent proliferation in combination (MCF-7 cells)
–	–	–	T-DM1 [reference compound]	Inactive	266	does not have bystander effect	–	–
not	not	can bind	39S: lead optimized monoclonal antibody derived from the 1.39.1 antibody; VH SEQ ID NO:15, VL SEQ ID NO:16 (antibody, V domains shown) VH: EVQLVESGGGLVKPGGSLRLSCAASGFTFSSYSMSWVRQAPGKGLEWVSSISSSSSYIYYADSVKGRFTISRDNAKNSLYLQMNSLRAEDTAVYYCARGGDAYNYYYFDYWGQGTLVTVSS VL: DIVMTQTPLSLSVTPGQPASISCKSSQSVFFRSNNKNILAWYLQKPGQPPQLLIYWASSRESGVPDRFSGSGSGTDFTLKISRVEAEDVGVYYCQQYFGSPFTFGPGTKVDIK	–	–	–	does not compete with trastuzumab or pertuzumab; also recorded: binds to the same epitope as its parental antibody AZ1.39.1	additive or synergistic inhibition
